Measurements published in patent US20240076392A1, “ANTI-CD123 BINDING MOLECULES AND USES THEREOF” (IGM Biosciences, Inc., priority 2021, published 2024).
Residue numbers refer to the chain shown, from its start.

B1: h32716-4-2 IgG (antibody, V domains shown)
VH: QVQLVQSGPELKKPGASVKVSCKASGYIFTNYGMNWVRQAPGQGLEWMGWINTYTGESTYSADFKGRFVFSLDTSVSTAYLQISSLKAEDTAVYYCARSGGYDPMDYWGQGTLVTVSS
VL: DIQMTQSPSSLSASVGDRVTITCRASESVDNYGNTFMHWYQQKPGKAPKLLIYRASNLESGVPSRFSGSGSGTDFTFTISSLQPEDIATYYCQQSNEDPPTFGQGTKVEIK
B2: h32716-5-2 IgG (antibody, V domains shown)
VH: B1 VH with R38K
VL: B1 VL
B3: h32716-6-2 IgG (antibody, V domains shown)
VH: B1 VH with R38K, L45F, E46K
VL: B1 VL
B4: h32716-1-1 IgG (antibody, V domains shown)
VH: QVQLVQSGAEVKKPGSSVKVSCKASGYIFTNYGMNWVRQAPGQGLEWMGWINTYTGESTYSADFKGRVTITADESTSTAYMELSSLRSEDTAVYYCARSGGYDPMDYWGQGTLVTVSS
VL: DIVMTQSPDSLAVSLGERATINCRASESVDNYGNTFMHWYQQKPGQPPKLLIYRASNLESGVPDRFSGSGSGTDFTLTISSLQAEDVAVYYCQQSNEDPPTFGQGTRLEIK
B5: h32716-2-1 IgG (antibody, V domains shown)
VH: B4 VH with R38K, V68F, I70F, A72L
VL: B4 VL
B6: h32716-3-1 IgG (antibody, V domains shown)
VH: B4 VH with R38K, L45F, E46K, V68F, I70F, A72L
VL: B4 VL
B7: 32716 IgG (antibody, V domains shown)
VH: QIQLVQSGPELKKPGETVKISCKASGYIFTNYGMNWVKQAPGKSFKWMGWINTYTGESTYSADFKGRFAFSLETSASTAYLHINDLKNEDTATYFCARSGGYDPMDYWGQGTSVTVSS
VL: DIVLTQSPASLAVSLGQRATISCRASESVDNYGNTFMHWYQQKPGQPPKLLIYRASNLESGIPARFSGSGSRTDFTLTINPVEADDVATYYCQQSNEDPPTFGAGTKLELK

Molecular target: human CD123 on CHO cells expressing human CD123 (human) (UniProt P26951)
Assay: flow cytometry on CHO cells expressing human CD123, 4-parameter fit (direct binding; column headed IC50)

human CD123 on CHO cells expressing human CD123 (human), sequence (P26951 19-378): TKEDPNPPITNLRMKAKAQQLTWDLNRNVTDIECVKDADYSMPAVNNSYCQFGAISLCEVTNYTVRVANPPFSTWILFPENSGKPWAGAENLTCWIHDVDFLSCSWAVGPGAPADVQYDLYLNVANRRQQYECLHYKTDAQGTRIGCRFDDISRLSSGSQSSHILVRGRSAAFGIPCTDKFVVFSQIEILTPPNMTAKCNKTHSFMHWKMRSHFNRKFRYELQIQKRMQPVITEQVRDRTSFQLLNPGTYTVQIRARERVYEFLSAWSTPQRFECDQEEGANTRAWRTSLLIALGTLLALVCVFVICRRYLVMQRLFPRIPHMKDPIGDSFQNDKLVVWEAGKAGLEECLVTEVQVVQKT

First: B1
Second: B3
The EC50 (half-maximal binding concentration) of the first is 1.6-fold lower: 6.8 nM for the first, 11 nM for the second.

B4 and B5 are within 1.5-fold of each other in EC50 (half-maximal binding concentration): 7.4 nM for the first, 11 nM for the second.

In the case of B6, the EC50 (half-maximal binding concentration) is reported as 10 nM.

Compared with B2, B7 is 1.5-fold higher in EC50: 7.2 nM for the first, 11 nM for the second.

Molecular target: human CD123 on CHO cells expressing human CD123 (human) (UniProt P26951)
Assay: flow cytometry on CHO cells expressing human CD123, 4-parameter fit

Compared with B1, B2 is higher in Max binding intensity (MFI): 980000 MFI for the first, 1.1e+06 MFI for the second.

First: B3
Second: B4
The Max binding intensity (MFI) of the first is higher: 1e+06 MFI for the first, 950000 MFI for the second.

Going from B5 to B6, the Max binding intensity (MFI) rises from 930000 MFI to 940000 MFI.

For B7, the Max binding intensity (MFI) was 910000 MFI.
